How the values were obtained:
Format in all cases: in vivo, BALB/cA bare mouse
Set-up in all cases: TV d 0 / TV d 21: unit not given here
Conditions in all cases: for RTV: RTV=Vt/V0; for T/C (%): TRTV/CRTV×100; for Weight (g) Final: final body weight; for Weight (g) First: first (baseline) body weight; for TV d 0: d 0, day of first administration
[1] = test system: human gastric adenocarcinoma SGC-7901; test: Transplanted tumor of human gastric adenocarcinoma SGC-7901 in bare mouse
Excerpt: (§1) Animal Resource, Line and Strain: BALB/cA bare mouse, provided by Experimental Animal Center, Chinese Academy of Sciences, Shanghai, China.
Bare mouse transplanted with human gastric adenocarcinoma […] was established by subcutaneously inoculating human gastric adenocarcinoma SGC-7901 cell strain into bare mouse, with a inoculation concentration of 1-3×10^6. After establishing the transplanted tumor, it was passaged in bare mouse for three generations prior to use.
(§2) The eugonic tumor tissue was cut into about 1.5 mm^3. It was inoculated into hypodermis in right armpit of bare mouse under aseptic condition. The diameter of the transplanted tumor of the bare mouse was measured by vernier caliper. After the tumor grew to 100-300 mm^3, the mice were grouped randomly. The effect of reagents used for inhibiting tumor was observed dynamically through measuring the diameter of tumor. The diameter of tumor was measured 3 times per week, while measuring the weight of mice. With respect to the mice in an administration group, the mice were administrated by intravenous injection 6 times per week: with respect to the mice in a positive control group, the mice were administrated by intravenous injection 2 times per week; with respect to the mice in a negative control group, the mice were administrated by same amount of physiological saline at the same time.
(§3) The tumor volume (TV) was calculated as follows:
(§4) in which a and b represent length and width, respectively. The relative tumor volume (RTV) was calculated based on the measured results: RTV=Vt/V0, in which V0 represents the tumor volume measured at the first administration (d0), and Vt represents the tumor volume measured at each measurement. The factor for estimating the effect against tumor is the relative tumor proliferation T/C (%) as follows:
(§5) TRTV: RTV for treating group; CRTV: RTV for negative control group.
100 mg of p43 protein, obtained from Sine Laboratory in Shanghai, China, was dissolved in physiological saline to form a solution of 1 mg/ml.
(§6) The solution was administrated to bare mouse by intravenous injection in 2.5 mg p43 protein/kg weight, 5 mg p43 protein/kg weight, and 10 mg p43 protein/kg weight.

[2] = test system: human colon carcinoma HCT-116; test: Transplanted tumor of human colon carcinoma HCT-116 in bare mouse
Excerpt: as §1
(§7) Number of animal in each group: 10 mice for negative control group and 5 mice for treating group
(§8) Transplanted tumor of human colon carcinoma HCT-116 in bare mouse was established by inoculating human colon carcinoma HCT-116 cell strain into hypoderm of bare mouse, with a inoculation concentration of 1-3×10^6. After establishing the transplanted tumor, it was passaged in bare mouse for three generations prior to use.
as §2, with “through the method of” for “through”, “week,” for “week:”
as §3
as §4, with “depending” for “based”, “growth” for “proliferation”
as §5
100 mg of p43 protein, available from Sine Laboratory in Shanghai, China, was dissolved in physiological saline to form a solution of 1 mg/ml.
as §6

[3] = test system: human nasopharyngeal carcinoma CNE-1; test: Transplanted tumor of human nasopharyngeal carcinoma CNE-1 in bare mouse
Excerpt: as §1, §7
as §8, with “nasopharyngeal” for “colon”, “CNE-1” for “HCT-116”
as §2, with “fro” for “for”, “through the method of” for “through”, “week;” for “week:”
as §3
as §4, with “depending” for “based”, “growth” for “proliferation”
as §5
100 mg of p43 protein, available from Sine Laboratory in Shanghai, China, was dissolved in physiological saline to form a solution of 1 mg/ml. […]

[4] = 2.5 mg/kg intravenous injection 6 times per week
[5] = 2.5 mg/kg intravenous injection
[6] = 5 mg/kg intravenous injection 6 times per week
[7] = 10 mg/kg intravenous injection 6 times per week

B1: P43: accessory factor of tRNA synthetase of mammals; single-chain protein of 312 amino acids; obtained from Sine Laboratory, Shanghai (protein, UniProt Q12904 2-312, looked up)
Aminoacyl tRNA synthase …: ANNDAVLKRLEQKGAEADQIIEYLKQQVSLLKEKAILQATLREEKKLRVENAKLKKEIEELKQELIQAEIQNGVKQIPFPSGTPLHANSMVSENVIQSTAVTTVSSGTKEQIKGGTGDEKKAKEKIEKKGEKKEKKQQSIAGSADSKPIDVSRLDLRIGCIITARKHPDADSLYVEEVDVGEIAPRTVVSGLVNHVPLEQMQNRMVILLCNLKPAKMRGVLSQAMVMCASSPEKIEILAPPNGSVPGDRITFDAFPGEPDKELNPKKKIWEQIQPDLHTNDECVATYKGVPFEVKGKGVCRAQTMSNSGIK
RTV [1, 4]: 17.14 ± 7.25 | T/C (%) [1, 4]: 81.7% | TV d 21 [1, 4]: 2400 ± 360 | Weight (g) Final [1, 4]: 26.7 ± 1.7 g | Weight (g) First [1, 4]: 20.3 ± 0.9 g | TV d 0 [1, 5]: 140 ± 73 | RTV [1, 6]: 11.37 ± 6.3 | T/C (%) [1, 6]: 54.2% | TV d 21 [1, 6]: 1648 ± 102 | Weight (g) Final [1, 6]: 25.1 ± 1.9 g | Weight (g) First [1, 6]: 20.5 ± 0.7 g | TV d 0 ([1]; 5 mg/kg intravenous injection): 146 ± 72 | RTV [1, 7]: 12.99 ± 5.14 | T/C (%) [1, 7]: 61.9% | TV d 21 [1, 7]: 1715 ± 168 | Weight (g) Final [1, 7]: 25.4 ± 2.8 g | Weight (g) First [1, 7]: 20.7 ± 0.6 g | TV d 0 ([1]; 10 mg/kg intravenous injection): 132 ± 34 | side effect ([1]; SGC-7901 bearing bare mouse, 2.5, 5 and 10 mg/kg intravenous injection): without any obvious side effect | inhibition on growth of transplanted tumor ([1]; SGC-7901 in bare mouse, 2.5, 5 and 10 mg/kg intravenous injection): significant inhibition | RTV [2, 4]: 5.01 ± 0.92 | T/C (%) [2, 4]: 84.5% | TV d 21 [2, 4]: 822 ± 145 | Weight (g) Final [2, 4]: 24.1 ± 1.5 g | Weight (g) First [2, 4]: 20.7 g | TV d 0 [2, 5]: 164 ± 48 | RTV [2, 6]: 4.51 ± 0.75 | T/C (%) [2, 6]: 76.0% | TV d 21 [2, 6]: 703 ± 189 | Weight (g) Final [2, 6]: 23.9 ± 2.2 g | Weight (g) First [2, 6]: 21.3 g | TV d 0 ([2]; 5 mg/kg intravenous injection): 156 ± 39 | RTV [2, 7]: 4.73 ± 1.01 | T/C (%) [2, 7]: 79.7% | T/C (%) ([2]; 10 mg/kg intravenous injection 6 times per week, listed as p43): 79.79% | TV d 21 [2, 7]: 761 ± 211 | Weight (g) Final [2, 7]: 23.5 ± 2.1 g | Weight (g) First [2, 7]: 20.9 g | TV d 0 ([2]; 10 mg/kg intravenous injection): 161 ± 52 | side effect ([2]; HCT-116 bearing bare mouse, 2.5, 5 and 10 mg/kg intravenous injection): without any obvious side effect | inhibition on growth of transplanted tumor ([2]; HCT-116 in bare mouse, 2.5, 5 and 10 mg/kg intravenous injection): non-significant inhibition | RTV [3, 4]: 13.43 ± 5.64 | T/C (%) [3, 4]: 88.9% | TV d 21 [3, 4]: 1921 ± 201 | Weight (g) Final [3, 4]: 24.6 ± 2.4 g | Weight (g) First [3, 4]: 20.5 ± 1.3 g | TV d 0 [3, 5]: 143 ± 70 | RTV [3, 6]: 12.75 ± 5.12 | T/C (%) [3, 6]: 84.4% | TV d 21 [3, 6]: 1708 ± 154 | Weight (g) Final [3, 6]: 23.1 ± 1.8 g | Weight (g) First [3, 6]: 19.6 ± 0.8 g | TV d 0 ([3]; 5 mg/kg intravenous injection): 134 ± 48 | RTV [3, 7]: 12.63 ± 4.88 | T/C (%) [3, 7]: 83.6% | TV d 21 [3, 7]: 1856 ± 173 | Weight (g) Final [3, 7]: 22.9 ± 2.3 g | Weight (g) First [3, 7]: 19.8 ± 1.1 g | TV d 0 ([3]; 10 mg/kg intravenous injection): 147 ± 63 | side effect ([3]; CNE-1 bearing bare mouse, 2.5, 5 and 10 mg/kg intravenous injection): without any obvious side effect | inhibition on growth of transplanted tumor ([3]; CNE-1 in bare mouse, 2.5, 5 and 10 mg/kg intravenous injection): non-significant inhibition

Source: patent US20090324573A1, “Pharmaceutical Composition Comprising P43 Protein for the Treatment of Gastric Adenocarcinoma” (priority 2006, published 2009)
